Experimental data as given in PMC11602988 (The Journal of Biological Chemistry, 2024).
Where a chain is given by its changes, count along the chain named.

Assays:
OCT1 WT [1] = biological target: T1, OCT1 WT (Homo sapiens, UniProt O15245); test: Uptake screening (transport ratio over empty vector), HEK293 cells overexpressing OCT1 WT; format: cell-based; design: expressed in transfected cells;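 also: intracellular substrate levels quantified by HPLC–tandem mass spectrometry after uptake in HBSS+ buffer at 37 °C, stable Flp-In HEK293 lines, fold change versus empty vector–transfected cells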
T1 sequence (O15245 1-554): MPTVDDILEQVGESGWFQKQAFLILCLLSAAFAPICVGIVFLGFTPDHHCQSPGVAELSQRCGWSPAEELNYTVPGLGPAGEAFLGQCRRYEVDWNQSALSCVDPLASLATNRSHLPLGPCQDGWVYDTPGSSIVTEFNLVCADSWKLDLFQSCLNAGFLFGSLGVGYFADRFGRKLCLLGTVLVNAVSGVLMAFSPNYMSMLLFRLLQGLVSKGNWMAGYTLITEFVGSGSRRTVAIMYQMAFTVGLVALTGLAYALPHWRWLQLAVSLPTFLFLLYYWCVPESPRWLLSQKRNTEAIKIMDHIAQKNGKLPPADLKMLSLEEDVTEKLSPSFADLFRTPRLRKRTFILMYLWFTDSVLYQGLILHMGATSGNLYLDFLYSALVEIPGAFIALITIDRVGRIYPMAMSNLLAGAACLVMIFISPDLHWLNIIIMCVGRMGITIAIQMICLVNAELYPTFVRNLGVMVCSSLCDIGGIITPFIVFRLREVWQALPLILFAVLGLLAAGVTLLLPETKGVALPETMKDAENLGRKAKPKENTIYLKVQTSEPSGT

OCT1 WT [2] = biological target: T1, OCT1 WT; test: Concentration-dependent uptake kinetics, HEK293 cells overexpressing OCT1 WT
Method: (§1) All experiments were carried out using transporter-overexpressing HEK293 cells. […] Cells were cultivated in Dulbecco’s Modified Eagle’s medium supplemented with 10% fetal calf serum, 100 U/ml penicillin, and 100 μg/ml streptomycin. Cells were passaged twice a week and kept in culture for no longer than 30 passages.
(§2) For uptake studies, 300,000 HEK293 cells were plated in each well of 24-well plates precoated with poly-D-lysine 48 prior to the experiment. On the day of the experiment, cells were washed once with prewarmed to 37 °C HBSS+ (Hank’s balanced salt solution supplemented with 10 mM Hepes, both Sigma-Aldrich). […] Uptake was stopped by adding ice-cold HBSS+ and cells were washed twice with ice-cold buffer before cell lysis was done using 80% acetonitrile containing an appropriate internal standard for eventual mass spectrometry. Relative quantification was done by comparison of transporter-overexpressing cells to empty vector–transfected controls. For uptake kinetic experiments, cells were incubated with increasing concentrations of substrate dissolved in HBSS+. Absolute quantification was done later by comparison to a standard curve in lysis buffer with known concentration.
(§3) Intracellular drug concentrations were detected and quantified by HPLC coupled to mass spectrometry. […] Substance-specific conditions were used to adjust the retention times of the analytes.
(§4) Transport ratios were determined as relative fold-increase of the uptake in transporter-overexpressing cells over empty vector–transfected control cells. For transport kinetic experiments, absolute substrate quantification was done by signal comparison to a standard curve with known concentrations. Net uptake was then determined by subtracting the uptake into empty vector–transfected cells from transporter-overexpressing cells. […] Vmax defines the maximum transport velocity, Km refers to the substrate concentration required to reach half vmax. The intrinsic clearance Clint is the ratio of vmax over Km.

OCT1 Phe244Ala variant [3] = biological target: T2, OCT1 Phe244Ala variant (Homo sapiens, UniProt O15245, F244A); conditions: cited from earlier work
T2 sequence (O15245 1-554 F244A): T1 sequence (O15245 1-554) with F244A

OCT1 Phe244Ala variant [4] = biological target: T2, OCT1 Phe244Ala variant; test: Concentration-dependent uptake kinetics, HEK293 cells overexpressing OCT1 Phe244Ala;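 also: cells exposed to rising substrate concentrations in buffer, intracellular drug measured by HPLC-tandem mass spectrometry, quantified against a standard curve, uptake referenced to empty vector-transfected HEK293 controls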
Method: as §1, §2, §3, §4

OCT1 Phe244Ala variant [5] = biological target: T2, OCT1 Phe244Ala variant; test: Uptake screening (transport ratio over empty vector), HEK293 cells overexpressing OCT1 Phe244Ala variant; format: cell-based; design: expressed in transfected cells; conditions: for relative_Phe244Ala_uptake_in%: Phe244Ala uptake relative to OCT1 WT;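 as to all read-outs here: stably transfected HEK293 cells, intracellular substrate quantified by HPLC-tandem mass spectrometry in cell lysates, uptake in HBSS+ buffer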
Method: as §1, §2, §3, §4

OCT1 Phe244Ala variant [6] = biological target: T2, OCT1 Phe244Ala variant; test: Stereoselective cell uptake of racemic substrates (chiral LC-MS/MS), OCT1 Phe244Ala variant; conditions: 2.5 μM racemic substance, 2 min
Method: (§5) Intracellular concentrations were quantified after chiral chromatography by mass spectrometry and are presented as mean ± SD of three independent experiments. […] Whenever the absolute steric conformation of the enantiomers was unknown, the enantiomers were termed according to their elution as enantiomer-1 (E1) and enantiomer-2 (E2).
as §2
Chromatography was carried out with in reversed-phase mode with an aqueous mobile phase buffered with ammonium acetate and supplemented with 2-propanol or methanol as organic modifiers (Table S2). Order of elution of enantiomers was obtained either by reference literature ([28], [29], [30], [31], [32], [33]) or by injecting single enantiomers. Whenever there was no information available, the first eluting enantiomer was referred to as E1 and the second as E2.
(§6) Transport ratios were determined as relative fold-increase of the uptake in transporter-overexpressing cells over empty vector–transfected control cells. For transport kinetic experiments, absolute substrate quantification was done by signal comparison to a standard curve with known concentrations. Net uptake was then determined by subtracting the uptake into empty vector–transfected cells from transporter-overexpressing cells. […]

OCT1 WT [7] = biological target: T1, OCT1 WT; test: Stereoselective cell uptake of racemic substrates (chiral LC-MS/MS), OCT1 WT; conditions: 2.5 μM racemic substance, 2 min
Method: as §5
For uptake studies, 300,000 HEK293 cells were plated in each well of 24-well plates precoated with poly-D-lysine 48 prior to the experiment. On the day of the experiment, cells were washed once with prewarmed to 37 °C HBSS+ (Hank’s balanced salt solution supplemented with 10 mM Hepes, both Sigma-Aldrich). […] Relative quantification was done by comparison of transporter-overexpressing cells to empty vector–transfected controls. […] Absolute quantification was done later by comparison to a standard curve in lysis buffer with known concentration. […]
as §6

[8] = substrate: CC(=O)OC(C)C[N+](C)(C)C; test: cells, lysate or membranes; conditions: other: OCT1 WT, HEK293, 2 min incubation, net uptake, mean ± SD of three experiments
[9] = substrate: CC(C)(C)NCC(O)COc1cccc2c1CCC(=O)N2; test: cells, lysate or membranes; conditions: other: OCT1 WT, HEK293, 2 min incubation, net uptake, mean ± SD of three experiments
[10] = substrate: CN1CCN(CC(=O)N2c3ccccc3C(=O)Nc3cccnc32)CC1; test: cells, lysate or membranes; conditions: other: OCT1 WT, HEK293, 2 min incubation, net uptake, mean ± SD of three experiments
[11] = substrate: COc1cc(CCN)cc(OC)c1OC; test: cells, lysate or membranes; conditions: other: OCT1 WT, HEK293, 2 min incubation, net uptake, mean ± SD of three experiments
[12] = substrate: CN(C)CCc1c[nH]c2ccc(C[C@H]3COC(=O)N3)cc12; test: cells, lysate or membranes; conditions: other: OCT1 WT, HEK293, 2 min incubation, net uptake, mean ± SD of three experiments
[13] = substrate: CC(C)[N+](C)(CCOC(=O)C1c2ccccc2Oc2ccccc21)C(C)C; test: cells, lysate or membranes; conditions: other: OCT1 WT, HEK293, 2 min incubation, net uptake, mean ± SD of three experiments
[14] = substrate: CC(CCc1ccc(O)cc1)NCCc1ccc(O)c(O)c1; test: cells, lysate or membranes; conditions: other: OCT1 WT, HEK293, 2 min incubation, net uptake, mean ± SD of three experiments
Method: as §1, §2, §3, §4

[15] = substrate: NC(N)=Nc1nc(CSCCC(N)=NS(N)(=O)=O)cs1; test: cells, lysate or membranes; conditions: other: OCT1 WT, HEK293, 2 min incubation, net uptake, mean ± SD of three experiments
[16] = substrate: CCN1CCCC1CNC(=O)c1cc(S(N)(=O)=O)ccc1OC; test: cells, lysate or membranes; conditions: other: OCT1 WT, HEK293, 2 min incubation, net uptake, mean ± SD of three experiments
[17] = substrate: Cc1ncc(C[n+]2csc(CCO)c2C)c(N)n1; test: cells, lysate or membranes; conditions: other: OCT1 WT, HEK293, 2 min incubation, net uptake, mean ± SD of three experiments

Molecule: CN(C)C(=N)N=C(N)N [Metformin]
- Mean_transport_ratio_WT (OCT1 WT [1]; uptake ratio of OCT1 WT-overexpressing HEK293 cells over empty vector): 6.891
- vmax (OCT1 WT [2]; OCT1 WT, HEK293, 2 min incubation, net uptake): 10,813 ± 2176 pmol × mg protein^−1 × min^−1
- Clint (OCT1 WT [2]; OCT1 WT, ratio of vmax over Km): 3.71 ± 2.82 ml × g Protein^−1 × min^−1
- Km at 2 min (OCT1 WT [2]; human, HEK293 cells overexpressing OCT1 WT): 2910 ± 1630 µM
- Consequence of the Phe244Ala substitution on transport (OCT1 Phe244Ala variant [3]): complete loss of transport activity
- vmax (OCT1 Phe244Ala variant [4]; OCT1 Phe244Ala, HEK293, 2 min incubation, net uptake): 4361 ± 1497 pmol × mg protein^−1 × min^−1
- Clint (OCT1 Phe244Ala variant [4]; OCT1 Phe244Ala, ratio of vmax over Km): 1.54 ± 2.02 ml × g Protein^−1 × min^−1
- Km at 2 min (OCT1 Phe244Ala variant [4]; human, HEK293 cells overexpressing OCT1 Phe244Ala): 2830 ± 2730 µM
- Maximum transport capacity (vmax), Phe244Ala compared to WT (OCT1 Phe244Ala variant [4]; uptake kinetics, in words): reduced transport capacity
- Transport activity of Phe244Ala in % of WT activity (OCT1 Phe244Ala variant [5]; 2.5 μM substrate, 2 min, Phe244Ala uptake relative to WT): ~10%
- relative_Phe244Ala_uptake_in% (OCT1 Phe244Ala variant [5]): 14.754%
- Mean_transport_ratio_Phe244Ala (OCT1 Phe244Ala variant [5]; uptake ratio of OCT1 Phe244Ala-overexpressing HEK293 cells over empty vector): 1.869

Molecule: O=C(NCCNCC(O)COc1ccc(O)cc1)N1CCOCC1 (stereo not shown) [Xamoterol]
- Mean_transport_ratio_WT (OCT1 WT [1]; uptake ratio over empty vector, HEK293 cells overexpressing OCT1 WT): 34.864
- Stereoselectivity of Phe244Ala variant compared to WT (OCT1 Phe244Ala variant [6]): only one enantiomer of the racemic mixtures showed altered transport
- Stereoselectivity of transport by the Phe244Ala variant (OCT1 Phe244Ala variant [6]): lacked any stereoselective transport
- relative_Phe244Ala_uptake_in% (OCT1 Phe244Ala variant [5]): 54.211%
- Mean_transport_ratio_Phe244Ala (OCT1 Phe244Ala variant [5]; uptake ratio over empty vector, HEK293 cells overexpressing OCT1 Phe244Ala): 19.358
- Stereoselectivity of uptake via WT OCT1 (OCT1 WT [7]): stereoselective uptake

B1: OCT1 WT (Homo sapiens) (protein)
chain: T1 sequence (O15245 1-554)
- Km [8]: 413 ± 314 µM
- Vmax [8]: 0.00584 µmol/min/mg
- Vmax/Km [8]: 14.1 µL/min/mg
- Km [9]: 449 ± 438 µM
- Vmax [9]: 0.000453 µmol/min/mg
- Vmax/Km [9]: 1.01 µL/min/mg
- Km [10]: 69.3 ± 103 µM
- Vmax [10]: 3e-05 µmol/min/mg
- Vmax/Km [10]: 0.43 µL/min/mg
- Km [11]: 38.2 ± 14.3 µM
- Vmax [11]: 0.000185 µmol/min/mg
- Vmax/Km [11]: 4.84 µL/min/mg
- Km [12]: 98.5 ± 87.8 µM
- Vmax [12]: 0.00213 µmol/min/mg
- Vmax/Km [12]: 21.6 µL/min/mg
- Km [13]: 1.26 ± 1.12 µM
- Vmax [13]: 0.000271 µmol/min/mg
- Vmax/Km [13]: 224 µL/min/mg
- Km [14]: 40.1 ± 57.7 µM
- Vmax [14]: 0.000122 µmol/min/mg
- Vmax/Km [14]: 3.03 µL/min/mg
- Km [15]: 64.7 ± 50.2 µM
- Vmax [15]: 0.00296 µmol/min/mg
- Vmax/Km [15]: 45.8 µL/min/mg
- Km [16]: 89.2 ± 85.2 µM
- Km [17]: 1161 ± 1029 µM
- Vmax [17]: 0.00872 µmol/min/mg
- Vmax/Km [17]: 7.51 µL/min/mg
